In US12049482B2, “Molecular switch-mediated control of engineered cells” (THE GENERAL HOSPITAL CORPORATION, priority 2017, dated 2024):
Each block holds one molecule with its values, some of them ahead of it.

Legend:
[1] = test system: CRBN; experiment: Internalization and degradation of CD28-degron-GFP in 293T cells; type: cell-based, human; settings: 10 μM pomalidomide, 293T cells with biallelic CRBN exon 5 disruption
Description: Transduced cells were incubated with a range of Pomalidomide concentrations or DMSO for 20 hours. Cells were analyzed by flow cytometry for eGFP and mCherry fluorescence. 1000 mCherry+ cells were analyzed per sample, and the geometric mean of the per-cell eGFP/mCherry ratio was calculated in Flowjo. In Pomalidomide dose titration studies, the EC50 was calculated by non-linear regression in Prism. Experiments were performed in triplicate. In some cases cell surface protein expression was assayed in parallel with the above reporter assay; cells were stained with anti-CD28-BV421 antibody (BD Biosciences 562613) at a 1:50 dilution in FACS buffer (PBS+2% FCS+2 mM EDTA) for 10 minutes on ice. Cells were washed with FACS buffer and analyzed by flow cytometry.

[2] = target: CRBN (Homo sapiens, UniProt Q96SW2); experiment: EGFP/mCherry reporter of zinc finger degron sequences, IMiD titration; type: cell-based; parameters: endogenous in cells; settings: HEK239T cells, drug titration, 20 h
CRBN (Homo sapiens, UniProt Q96SW2), sequence (Q96SW2 whole entry): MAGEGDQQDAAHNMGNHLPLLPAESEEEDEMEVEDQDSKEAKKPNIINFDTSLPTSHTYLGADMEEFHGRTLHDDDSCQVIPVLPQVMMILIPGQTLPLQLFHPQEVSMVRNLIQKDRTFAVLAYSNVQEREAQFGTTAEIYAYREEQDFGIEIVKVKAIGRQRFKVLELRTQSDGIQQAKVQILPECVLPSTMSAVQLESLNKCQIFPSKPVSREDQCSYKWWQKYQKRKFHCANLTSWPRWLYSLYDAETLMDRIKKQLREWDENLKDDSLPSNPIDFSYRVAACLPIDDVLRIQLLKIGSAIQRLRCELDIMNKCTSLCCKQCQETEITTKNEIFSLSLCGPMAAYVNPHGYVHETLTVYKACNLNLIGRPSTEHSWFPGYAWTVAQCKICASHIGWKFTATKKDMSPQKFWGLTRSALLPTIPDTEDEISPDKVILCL
Description: A hybrid sequence of two distinct CRBN substrates, IKZF3 and ZFP91, was constructed and examined for activity within an “OFF-switch” system of the instant disclosure. In such experiments, reporter constructs containing zinc finger sequences were expressed in HEK239T cells via lentiviral transduction, after which the cells were treated with a titration of (IMiD) drug concentrations for 20 h. Flow cytometry was used to measure the EGFP/mCherry ratio normalized to the average of three DMSO treated controls. Data shown in FIG. 10 are representative of two experimental replicates (technical replicates=0, experimental replications=2).

[3] = test system: CD19scFv-CD28-IKZF3; experiment: BRET, split receptor: membrane-tethered or untethered minCRBN3 paired with CD19scFv-CD28-IKZF3; type: cell-based, human; settings: 293T cells, 10 μM MG132, 2 hours of drug treatment
CD19scFv-CD28-IKZF3, sequence (as listed by the source, one chain of several): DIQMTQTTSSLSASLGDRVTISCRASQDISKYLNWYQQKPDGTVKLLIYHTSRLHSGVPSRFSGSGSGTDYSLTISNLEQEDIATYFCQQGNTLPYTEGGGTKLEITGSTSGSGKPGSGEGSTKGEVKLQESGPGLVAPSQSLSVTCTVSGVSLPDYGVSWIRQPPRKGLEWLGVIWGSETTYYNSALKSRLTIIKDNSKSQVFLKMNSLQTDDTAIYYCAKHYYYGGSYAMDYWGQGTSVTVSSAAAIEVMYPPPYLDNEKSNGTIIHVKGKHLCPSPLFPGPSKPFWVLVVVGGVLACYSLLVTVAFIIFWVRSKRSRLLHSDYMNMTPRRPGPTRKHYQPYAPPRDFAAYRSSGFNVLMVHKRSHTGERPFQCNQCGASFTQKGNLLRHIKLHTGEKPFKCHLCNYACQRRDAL
Description: (§1) 293T cells were co-transfected with pFC14K and pFC32K plasmids expressing IKZF3-HaloTag and CRBN-Nanoluciferase fusion proteins and incubated overnight. Cells were then trypsinized and seeded into 96 well plates, at 40,000 cells per well. The BRET assay was performed per manufacturer's instructions (Promega™). In brief, cells were incubated for 2 hours with varying concentrations of Pomalidomide or DMSO, 10 μM MG132, and 100 nM HaloTag NanoBRET 618 Ligand. NanoBRET Nano-Glo substrate was added and donor (460 nm) and acceptor (618 nm) emission were measured within 10 minutes (EnVision, Perkin Elmer). Mean corrected milliBRET units (mBU) was calculated.
Specific minCRBN-presenting polypeptide tethers to the plasma membrane that were tested included: (1) a CD8/CD28 system in which about 36 amino acids of TMD and cytosolic sequence connected to the co-stimulatory/minCRBN domains of the thereby membrane-tethered polypeptide; (2) a PD1 Y F ITAM/ITSM construct, in which minCRBN was tethered to the plasma membrane via a TMD and cytosolic domain of approximately 100 amino acids in length; and (3) a LYN-CD28 construct, in which membrane tethering was achieved via myristoyl/palmitoylation.

[4] = test system: IKZF3aa130-189; experiment: BRET assay, dimerization of IKZF3aa130-189 with CRBN or minCRBN variants; type: cell-based, human; settings: pomalidomide dose-response
IKZF3aa130-189, sequence (Q9UKT9 130-189 limits assumed, one chain of several): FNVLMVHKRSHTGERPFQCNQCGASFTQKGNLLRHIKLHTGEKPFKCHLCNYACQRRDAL
Description: Specifically, CRBN deletion variants were engineered to retain binding to Pom/IKZF3 but not DDB1/CUL4. Four deletion variants were generated in CRBN that removed the DDB1-binding domain, as shown in the middle image (NTD is the N-terminal domain; LLP1 is Lon-like protease domain 1 (split into LLP1-N and LLP1-C regions); TBD is the Thalidomide binding domain). At middle, BRET assays were performed upon 293T cells harboring bialleleic CRISPR/Cas9 disruption of endogenous CRBN (293T-CRBNΔe5), to assess dimerization between IKZF3aa130-189 and CRBN or minCRBN variants (dose-response data shown are CRBN, minCRBN1, minCRBN2, minCRBN3 and minCRBN4). […] Pomalidomide-dependent dimerization was observed between IKZF3aa130-189-HaloTag and CRBN-Nanoluciferase (NLuc) or minCRBN2-4-NLuc. […] 1 day after transfection, cells were exposed to 1 μM pomalidomide for the number of hours indicated and GFP and mCherry fluorescence was measured by flow cytometry (eGFPmCherry levels were detected as 0.5 or less for the CRBN trace).
as §1
Tested forms of minimal CRBN included minCRBN1, minCRBN2, minCRBN3 and minCRBN4, each of which were aligned against the wild-type CRBN (FIG. 1; all tested minCRBNs lacked the DDB1-binding domain—minCRBN1 comprised amino acids 339-442 of CRBN (including the TBD); minCRBN2 comprised amino acids 317-442 of CRBN (including TBD and an N-terminal extended sequence relative to minCRBN1); minCRBN3 included all CRBN sequence other than amino acids 194-207 (deletion of the DDB1-binding domain); and minCRBN4 included all sequences other than amino acids 187-260 (deletion of the DDB1-binding domain)).

Molecule: CD28-degron: In frame fusion of full length CD28, a SG linker, and IKZF3 (amino acids 130-189); SEQ ID NO: 82
degradation (normalized GFP levels) [1]: no significant decline in normalized GFP levels

IMiD sensitivity (EGFP/mCherry ratio normalized to DMSO) [2]: minimal IMiD sensitivity/responsiveness
Molecule: IKZF3/ZFP91: Reverse hybrid, IKZF3 amino acids 146-156 + ZFP91 amino acids 411-422, SEQ ID NO: 33 (FQCNQCGASFTQKASLNWHMKKH)

Molecule: ZFP91/IKZF3 hybrid: ZFP91 amino acids 400-410 + IKZF3 amino acids 157-168, SEQ ID NO: 32 (LQCEICGFTCRQKGNLLRHIKLH)
IMiD sensitivity (EGFP/mCherry ratio normalized to DMSO) [2]: greater IMiD sensitivity than either the ZFP91 degron sequence alone or the IKZF3 degron sequence alone

B1: minCRBN3: All CRBN sequence other than amino acids 194-207 (deletion of the DDB1-binding domain), SEQ ID NO: 3 (protein)
chain: AGEGDQQDAAHNMGNHLPLLPESEEEDEMEVEDQDSKEAKKPNIINFDTSLPTSHTYLGADMEEFHGRTLHDDDSCQVIPVLPQVMMILIPGQTLPLQLFHPQEVSMVRNLIQKDRTFAVLAYSNVQEREAQFGTTAEIYAYREEQDFGIEIVKVKAIGRQRFKVLELRTQSDGIQQAKVQILPECVLPSTYDAETLMDRIKKQLREWDENLKDDSLPSNPIDFSYRVAACLPIDDVLRIQLLKIGSAIQRLRCELDIMNKCTSLCCKQCQETEITTKNEIFSLSLCGPMAAYVNPHGYVHETLTVYKACNLNLIGRPSTEHSWFPGYAWTVAQCKICASHIGWKFTATKKDMSPQKFWGLTRSALLPTIPDTEDEISPDKVILCL
pomalidomide-dependent interaction with IKZF3 degron split receptor (BRET) [3]: to a significantly lesser extent than any of the various plasma membrane-tethered versions
pomalidomide-dependent dimerization with IKZF3 degron (mBU) [4]: pomalidomide-dependent interactions
